In publication PMC4721966 one finds stoichiometry N, K half and Kd data, which are given here for four substances.

Usually stoichiometry N stands for the number of molecules, sites or subunits per partner or assembly. Usually Kd stands for the constant that tells how readily two partners part at equilibrium. A low value points to higher affinity.

The target of data set [1] is PtAu1a_(bZIP-LOV), truncated PtAu1a variant encompassing the bZIP and LOV domain (Phaeodactylum tricornutum). Nature of the data set: SEC-MALS; dark: pre-incubated at 20°C in the dark for 20 min; 100 µl of 150 µM protein on Superdex 200 10/300 GL in buffer C (20 mM HEPES pH 7.5, 100 mM NaCl, 10 mM MgCl2, 5% glycerol), RT, column kept in the dark; monomer-dimer. Background: Size exclusion chromatography separates by hydrodynamic size, large species first.

Data set [2] has the same target. Nature of the data set: SEC-MALS; light: pre-incubated at 20°C under continuous blue light (400 µW cm^-2 at 450 nm) for 20 min; 100 µl of 150 µM protein on Superdex 200 10/300 GL in buffer C, RT, column continuously illuminated; monomer-dimer.
The test system of data set [3] is Aureochrome 1a full length (PtAu1afull) (Phaeodactylum tricornutum). The data set can be described thus: EMSA. Conditions: 10 mM MgCl2, EMSA: 50 nM DNA in buffer C (20 mM HEPES pH 7.5, 100 mM NaCl, 10 mM MgCl2, 5% glycerol) plus 5% glycerol, 20 min at RT, dark or blue light (450 nm), 10% TGE ….
Data set [4] deals with Aureochrome 1a from Phaeodactylum tricornutum, full-length protein (PtAu1a_(full)) (Phaeodactylum tricornutum). Nature of the data set: SEC-MALS; dark: pre-incubated at 20°C in the dark for 20 min; 100 µl of 150 µM protein on Superdex 200 10/300 GL in buffer C (20 mM HEPES pH 7.5, 100 mM NaCl, 10 mM MgCl2, 5% glycerol), RT, column kept in the dark; monomer-dimer.
Data set [5] shares this target. The data set can be described thus: SEC-MALS; light: pre-incubated at 20°C under continuous blue light (400 µW cm^-2 at 450 nm) for 20 min; 100 µl of 150 µM protein on Superdex 200 10/300 GL in buffer C, RT, column continuously illuminated; monomer-dimer.
The target in data set [6] is PtAu1aLOV, LOV domain of PtAu1a containing its N- and C-terminal α-helical extensions A´α and Jα (Phaeodactylum tricornutum). The data set can be described thus: MST; dark; Monolith NT.115; 20 nM DY-647-labelled PtAu1aLOV with a 1:2 dilution series of unlabelled PtAu1aLOV; 20 mM HEPES pH 7.5, 100 mM NaCl, 10% glycerol; dimer to monomers.
Data set [7] has the same target. The data set can be described thus: SEC-MALS; light: pre-incubated at 20°C under continuous blue light (400 µW cm^-2 at 450 nm) for 20 min; 100 µl of 150 µM protein on Superdex 200 10/300 GL in buffer C, RT, column continuously illuminated; monomer-dimer.

As for “PtAu1a_(bZIP-LOV), truncated PtAu1a variant encompassing the bZIP and LOV domain (domain or fragment)”, the stoichiometry N in data set [1] and in data set [2] was 2 each time.

On to “TGTAGCGTCTGACGTGGTTCCCAC (double strand) [24-bp dsCYC2 promoter probe]”, for which the K half in data set [3] (continuous blue light, EC50, Hill coefficient 1.65) is 90 nM; in data set [3] (dark, EC50, Hill coefficient 1.35) it was 860 nM.

With “Aureochrome 1a from Phaeodactylum tricornutum, full-length protein (PtAu1a_(full)) (natural protein)”, the stoichiometry N in data set [4] and in data set [5] was 2 each time.

Substance “PtAu1aLOV, LOV domain of PtAu1a containing its N- and C-terminal α-helical extensions A´α and Jα (domain or fragment)” had a Kd in data set [6] of 13.6 µM. The stoichiometry N in data set [7] was 2.
